Tested on: T1, OsMYB55 (Oryza sativa)
T1 sequence: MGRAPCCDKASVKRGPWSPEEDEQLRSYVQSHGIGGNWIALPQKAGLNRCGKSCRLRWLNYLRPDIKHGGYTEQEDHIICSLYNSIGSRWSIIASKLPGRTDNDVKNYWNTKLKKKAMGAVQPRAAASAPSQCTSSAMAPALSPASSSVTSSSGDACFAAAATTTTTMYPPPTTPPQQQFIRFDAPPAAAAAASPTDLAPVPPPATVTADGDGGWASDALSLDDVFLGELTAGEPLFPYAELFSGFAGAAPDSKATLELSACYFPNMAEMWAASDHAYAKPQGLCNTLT
Experiment: cell_activity
Conditions: GUS transactivation in tobacco leaf vs empty vector; almost eight-fold

activity, 8 fold:
OsGAD3 promoter 1.5-2 kb (GUS reporter)
OsGAT1 promoter 1.5-2 kb (GUS reporter)
OsGS1;2 promoter 1.5-2 kb (GUS reporter)

— patent US20150218578
